Measurements taken from article PMC9107513.

Experiments:
[1] = western blot, endogenous RYR1, C2C12 myotubes ± MG-132; conditions: glycan lost; control: vector / control siRNA
[2] = MS of immunoprecipitated endogenous RYR1, C2C12; conditions: glycan lost; control: control siRNA
[3] = IP of exogenous RYR1, phospho-Ser/Thr blot; conditions: glycan lost; control: control siRNA
[4] = IP of tagged RYR1, blot of tagged ubiquitin, MG-132; conditions: glycan lost; control: vector / control siRNA
[5] = western blot, exogenous wild-type RYR1 in C2C12; conditions: glycan lost; control: vector / control siRNA

Substance: RYR1: siRNA-mediated knockdown of OGT
- expression_or_secretion [1]: increases

Substance: RYR1: OGT knockdown
- other: phosphorylation at T4338 [2]: increases

Substance: human RYR1: OGT knockdown
- other: Ser/Thr phosphorylation [3]: increases
- other: ubiquitination [4]: decreases
- expression_or_secretion [5]: increases
